According to publication PMC7851562 (2020):

T1: coxsackievirus and adenovirus receptor (CAR), as used in SPR (UniProt P78310 20-365)
T1 chain: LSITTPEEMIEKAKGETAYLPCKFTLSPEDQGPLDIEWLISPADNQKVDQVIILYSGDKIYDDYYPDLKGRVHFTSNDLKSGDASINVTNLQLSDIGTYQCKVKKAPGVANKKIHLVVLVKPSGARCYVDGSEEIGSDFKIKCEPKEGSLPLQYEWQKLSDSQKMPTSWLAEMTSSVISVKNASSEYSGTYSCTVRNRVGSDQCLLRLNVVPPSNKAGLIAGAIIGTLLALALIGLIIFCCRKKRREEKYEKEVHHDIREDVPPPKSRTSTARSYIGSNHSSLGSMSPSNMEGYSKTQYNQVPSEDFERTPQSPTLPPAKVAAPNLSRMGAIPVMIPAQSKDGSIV


Assays:
[1] = target: coxsackievirus and adenovirus receptor (CAR) on CHO-CAR cells (UniProt P78310)
[2] = target: coxsackievirus and adenovirus receptor (CAR), as used in SPR (UniProt P78310); assay: SPR; recombinant fiber knob protein over receptor; about 5,000 RU of DSG2-Fc amine coupled to a CM5 chip at 10 μl/min; in triplicate; CAR and CD46 surfaces as previously described (ref 36)
[3] = target: T1, coxsackievirus and adenovirus receptor …; assay: SPR

Molecule | inhibition of HAdV-C5 transduction (luciferase) of CHO-CAR cells preincubated with recombinant HAdV-D49K [1] [%] | Kd [2] [nM] | koff [3] [s⁻¹]
human adenovirus type 49 fiber knob protein (domain or fragment) | 50 | 190 | 
human adenovirus type 49 fiber knob protein (domain or fragment) MRGSHHHHHHGSKKGDLVAWNKENDRRTLWTTPDPSPNCKVSEEKDSKLTLVLTKCGSQILASVSLLVVKGKFANINNKTNPGEDYKKFSVKLLFDANGKLLTGSSLDGNYWNYKNKDSVIGSPYENAVPFMPNSTAYPKIINNGTANPEDKKSAAKKTIVTNVYLGGDAAKPVATTISFNKETESNCVYSITFDFAWNKTYKNVPFDSSSLTFSYIAQDAEDKNE |  |  | 0.0012
